From patent US20210139548A1 (published 2021)
Each block holds one binder with its values, some of them ahead of it. *1 amine or outer side, *2 acyl side, *3 side chain or, on linkers, in order; H or OH if unused. Side-chain parts run from the residue outwards. The star is where a group is joined. C18 diacid = O=C(O)CCCCCCCCCCCCCCCCC(=O)*; γGlu = O=C(O)[C@H](CCC(=O)[*:2])N[*:1]; Isovaleryl = CC(C)CC(=O)*; AEEA = NCCOCCOCC(=O)O

Molecular target: T1, human neuropeptide Y2 receptor (human, UniProt P49146 1-381)
T1 construct: whole, on cells; also called hNPY2 receptor; hNPY2-R
T1 sequence (looked up): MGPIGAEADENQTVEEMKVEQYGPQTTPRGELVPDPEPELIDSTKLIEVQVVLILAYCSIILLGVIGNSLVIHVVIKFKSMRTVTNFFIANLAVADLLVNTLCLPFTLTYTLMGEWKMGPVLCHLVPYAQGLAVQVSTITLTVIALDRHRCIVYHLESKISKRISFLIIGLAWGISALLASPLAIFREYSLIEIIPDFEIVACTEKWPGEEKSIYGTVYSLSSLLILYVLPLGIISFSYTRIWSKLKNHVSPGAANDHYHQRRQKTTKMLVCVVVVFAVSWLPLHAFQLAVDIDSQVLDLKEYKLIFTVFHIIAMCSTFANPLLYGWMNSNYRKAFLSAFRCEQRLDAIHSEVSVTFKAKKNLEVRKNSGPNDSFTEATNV
Experiment: radioligand competition (125I-PYY(1-36)), hNPY2R membranes
Procedure, shortened: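 Commercial human Y2 receptor membranes (0.5 μg protein/well) were incubated with peptide for 2 h at room temperature in 50 mM HEPES, 5 mM MgCl₂, 1 mM CaCl₂, pH 7.4, with 0.2% ovalbumin. Bound radioligand was separated on PEI-soaked GF/C filters and counted by scintillation, and IC₅₀ came from nonlinear sigmoidal regression.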

Ki: 1.9 nM
B1: Compound 205 (peptide)
peptide: Isovaleryl-APEK([AEEA-AEEA-γGlu-C18 diacid])PEEEASPEELQKYYVSLRHYYNWLTRQRY-NH2
SMILES: CC(C)CC(=O)N[C@@H](C)C(=O)N1CCC[C@H]1C(=O)N[C@@H](CCC(=O)O)C(=O)N[C@@H](CCCCNC(=O)COCCOCCNC(=O)COCCOCCNC(=O)CC[C@H](NC(=O)CCCCCCCCCCCCCCCCC(=O)O)C(=O)O)C(=O)N1CCC[C@H]1C(=O)N[C@@H](CCC(=O)O)C(=O)N[C@@H](CCC(=O)O)C(=O)N[C@@H](CCC(=O)O)C(=O)N[C@@H](C)C(=O)N[C@@H](CO)C(=O)N1CCC[C@H]1C(=O)N[C@@H](CCC(=O)O)C(=O)N[C@@H](CCC(=O)O)C(=O)N[C@@H](CC(C)C)C(=O)N[C@@H](CCC(N)=O)C(=O)N[C@@H](CCCCN)C(=O)N[C@@H](Cc1ccc(O)cc1)C(=O)N[C@@H](Cc1ccc(O)cc1)C(=O)N[C@H](C(=O)N[C@@H](CO)C(=O)N[C@@H](CC(C)C)C(=O)N[C@@H](CCCNC(=N)N)C(=O)N[C@@H](Cc1c[nH]cn1)C(=O)N[C@@H](Cc1ccc(O)cc1)C(=O)N[C@@H](Cc1ccc(O)cc1)C(=O)N[C@@H](CC(N)=O)C(=O)N[C@@H](Cc1c[nH]c2ccccc12)C(=O)N[C@@H](CC(C)C)C(=O)N[C@H](C(=O)N[C@@H](CCCNC(=N)N)C(=O)N[C@@H](CCC(N)=O)C(=O)N[C@@H](CCCNC(=N)N)C(=O)N[C@@H](Cc1ccc(O)cc1)C(N)=O)[C@@H](C)O)C(C)C

Ki: 1.07 nM
B2: Compound 207 (peptide)
peptide: Isovaleryl-APAK([AEEA-AEEA-γGlu-C18 diacid])PEADAEPEELQRYYVSLRHYYNWLTRQRY-NH2
SMILES: CC(C)CC(=O)N[C@@H](C)C(=O)N1CCC[C@H]1C(=O)N[C@@H](C)C(=O)N[C@@H](CCCCNC(=O)COCCOCCNC(=O)COCCOCCNC(=O)CC[C@H](NC(=O)CCCCCCCCCCCCCCCCC(=O)O)C(=O)O)C(=O)N1CCC[C@H]1C(=O)N[C@@H](CCC(=O)O)C(=O)N[C@@H](C)C(=O)N[C@@H](CC(=O)O)C(=O)N[C@@H](C)C(=O)N[C@@H](CCC(=O)O)C(=O)N1CCC[C@H]1C(=O)N[C@@H](CCC(=O)O)C(=O)N[C@@H](CCC(=O)O)C(=O)N[C@@H](CC(C)C)C(=O)N[C@@H](CCC(N)=O)C(=O)N[C@@H](CCCNC(=N)N)C(=O)N[C@@H](Cc1ccc(O)cc1)C(=O)N[C@@H](Cc1ccc(O)cc1)C(=O)N[C@H](C(=O)N[C@@H](CO)C(=O)N[C@@H](CC(C)C)C(=O)N[C@@H](CCCNC(=N)N)C(=O)N[C@@H](Cc1c[nH]cn1)C(=O)N[C@@H](Cc1ccc(O)cc1)C(=O)N[C@@H](Cc1ccc(O)cc1)C(=O)N[C@@H](CC(N)=O)C(=O)N[C@@H](Cc1c[nH]c2ccccc12)C(=O)N[C@@H](CC(C)C)C(=O)N[C@H](C(=O)N[C@@H](CCCNC(=N)N)C(=O)N[C@@H](CCC(N)=O)C(=O)N[C@@H](CCCNC(=N)N)C(=O)N[C@@H](Cc1ccc(O)cc1)C(N)=O)[C@@H](C)O)C(C)C
